The text below walks through data of paper PMC11633510.

Assay [1] has as its target Recombinant Protein A (UniProt P38507). In words: MetaSPR; quantitative detection by differential absorption spectra, dual-wavelength OD difference (OD615-OD590); triple-layer chip; Protein A immobilised; IgG 0-10 µg/mL.
For assay [2] the target is unchanged. The experiment in a line: MetaSPR; triple-layer (Ti-Au-Ag-Au) nanocup array chip, 96-well; Protein A (20 µg/mL in CBS buffer) immobilised 16 h, blocked with 1% BSA; IgG 0.1-66.7 nM in PBS; 10 min association, 15 min dissociation.
For assay [3] the target is unchanged. In words: MetaSPR; single-layer (Ti-Au) nanocup array chip, 96-well; Protein A (20 µg/mL in CBS buffer) immobilised 16 h, blocked with 1% BSA; IgG 0.1-66.7 nM in PBS; 10 min association, 15 min dissociation.
The target is the same in assay [4]. The experiment in a line: MetaSPR; double-layer (Ti-Ag-Au) nanocup array chip, 96-well; Protein A (20 µg/mL in CBS buffer) immobilised 16 h, blocked with 1% BSA; IgG 0.1-66.7 nM in PBS; 10 min association, 15 min dissociation.
Assay [5] has the same target. The experiment in a line: MetaSPR; quadruple-layer (Ti-Ag-Au-Ag-Au) nanocup array chip, 96-well; Protein A (20 µg/mL in CBS buffer) immobilised 16 h, blocked with 1% BSA; IgG 0.1-66.7 nM in PBS; 10 min association, 15 min dissociation.

With “Immunoglobulin Antigen (Human IgG) (antibody)”, the maximum reaction value (dual-wavelength OD difference) at the highest IgG concentration (10 µg/mL) in the assay with Recombinant Protein A [1] was determined as 0.435. The Kd (commonly the free concentration of one partner at which half of the binding sites on the other are occupied at equilibrium, for simple one-to-one binding) in the assay with Recombinant Protein A [2] was found to be 122 pM; with Recombinant Protein A [3] it was 240 pM; in the assay with Recombinant Protein A [4] it was 116 pM; with Recombinant Protein A [5] it was 218 pM.
